Test results from patent publication US11912782B2, “BCMA monoclonal antibody-drug conjugate” (MedImmune, LLC, priority 2017, dated 2024).
Numbering of substitutions follows the chain as printed.

T1: monomeric human sBCMA (Homo sapiens, UniProt Q02223)
T1 construct: is comprised of the entire extracellular domain of the molecule; purchased GenScript
T1 sequence (Q02223 1-54 limits assumed): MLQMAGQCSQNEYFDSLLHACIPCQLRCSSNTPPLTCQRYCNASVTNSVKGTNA

B1: I09-SG3249: ADC: optimized clone I09 conjugated to the PBD payload SG3249 (conjugate)
VH: EVQLVESGGGLVKPGGSLRLSCAASGFTFSSYSMNWVRQAPGKGLEWVSSISGSSNYIYYADSVKGRFTISRDNAKNSLYLQMNSLRAEDTAVYYCARGGNYFVEYFQQWGQGTLVTVSS
VL: EIVLTQSPGTLSLSPGERATLSCRASQYISSNYLAWYQQKPGQAPRLLIYGASNRATGIPDRFSGSGSGTDFTLTISRLEPEDFAVYYCQQYSSDPITFGQGTKLEIK
B2: M02: lead optimized clone of 15B2GL; VH SEQ ID NO: 15, VL SEQ ID NO: 16 (antibody, V domains shown)
VH: B1 VH with S54Q, F103Y, Q109Y
VL: B1 VL with Y33N
B3: N22: lead optimized clone of 15B2GL; VH SEQ ID NO: 17, VL SEQ ID NO: 18 (antibody, V domains shown)
VH: B1 VH with Q109Y
VL: B1 VL with D95S
B4: I09: lead optimized clone of 15B2GL; VH SEQ ID NO: 11, VL SEQ ID NO: 12 (antibody, V domains shown)
VH: B1 VH
VL: B1 VL
B5: L15: lead optimized clone of 15B2GL; VH SEQ ID NO: 13, VL SEQ ID NO: 14 (antibody, V domains shown)
VH: B1 VH with S54Q, Q109Y
VL: B1 VL with Y33N, S93A, S94D, D95S
B6: P10: lead optimized clone of 15B2GL; VH SEQ ID NO: 19, VL SEQ ID NO: 20 (antibody, V domains shown)
VH: B1 VH with S30R, S54Q, F103Y, Q109Y
VL: B1 VL with S93T, S94D, D95S

What was measured:
MM.1S cells = assay: Cell killing in the presence of soluble BCMA (conditioned media from Ad293 cells expressing human BCMA); assay type: cell-based
Method: Killing of multiple myeloma and plasma cell leukemia cell lines by antibody-drug conjugates comprising 15B2GL, or affinity-optimized clones thereof, conjugated to SG3249 was evaluated in vitro using the protocol recommended in the CELLTITER-GLO® kit (Promega, Madison, Wis.). Killing of multiple myeloma and plasma cell leukemia cell lines by the free warhead SG3199 also was evaluated using the protocol recommended in the CELLTITER-GLO® kit (Promega, Madison, Wis.). Briefly, 5×10^3 cells in 80 μL RPMI+10% FBS were added to the inner wells of white-walled 96-well plates (Corning® Costar®, Fisher Scientific, Waltham, Mass.). The following BCMA-expressing cell lines were tested: NCI-H929, EJM, MM.1R. JJN3, OPM-2, MM.1S, U266.B1, and L363. BMCA-negative cell lines Raji and Jurkat also were tested. The antibody-drug conjugates were diluted to a 5× stock (2.5 μg/mL) in RPMI+10% FBS. Treatments were then serially diluted 1:3 in RPMI+10% FBS. 20 μL of this series was added to the cells in duplicate, resulting in a 12-point dose curve of antibody-drug conjugate ranging from 0.5 μg/mL at the highest concentration to 3×10^−[…] at the lowest. Isotype antibody-drug conjugate (IgG1-SG3249 and IgG1-mc-MMAF) and media-only controls also were included. Plates were incubated at 37° C., 5% CO2 for 96 hours. At the end of the incubation period, 100 μL of the Substrate Solution (Promega, Madison Wis.) was added to each well. Luminescence was measured using an EnVision™ Multilabel plate reader (Perkin Elmer, Waltham, Mass.). Data were analyzed and graphed using GraphPad Prism™ software (GraphPad Software, Inc., La Jolla, Calif.), and the half-maximal inhibitory concentration (IC50) was determined.
The ability of the 15B2GL-SG3249 ADC to kill multiple myeloma cells in vitro in the presence of soluble BCMA (sBCMA) as compared to the I09-5G3249 ADC was evaluated in MM.1S cells using the protocol described above, except that tested cell lines also were treated with BCMA-containing conditioned media collected from Ad293 cells expressing human BCMA (FIGS. 3A and 3B). 15B2GL-SG3249 ADC cell killing in the presence of sBCMA also was compared to ADCs comprising the anti-BCMA antibody J6M0, which is described in U.S. Pat. No. 9,273,141.

MM.1S xenograft [1] = assay: MM.1S subcutaneous xenograft model (Example 9); assay type: in vivo, mouse; conditions: 3 mg/kg intravenous, observed for 85 days post tumor implantation
Excerpt: (§1) Subcutaneous xenograft mouse models of multiple myeloma and plasma cell leukemia were generated by implanting BCMA-expressing multiple myeloma or plasma cell leukemia cell lines (i.e., NCI-H929 and MM.1S) into female CB-17 SCID (C.B-17/IcrHsd-Prkdc-scid) mice using MATRIGEL™ (BD Biosciences, San Jose, Calif.). Once tumors reached approximately 200 mm^3 (NCI-H929 cells) or 180 mm^3 (MM.1S cells), mice were randomized based on tumor size and placed into dosing groups and treated with BCMA-targeting ADCs as described below.
Mice were treated with either a single intravenous dose of the ADCs IgG1-SG3400 or 15B2GL-SG3400 at 1 mg/kg or 3 mg/kg or dosed intravenously with J6M0-SG3400 at a dose of 1 mg/kg or 3 mg/kg. Control mice were left untreated.

JJN3 xenograft = assay: JJN3 subcutaneous xenograft model; assay type: in vivo, mouse; conditions: single intravenous dose 1 mg/kg, observed for 104 days post tumor implantation
Excerpt: as §1, with “(i.e., NCI-H929, JJN-3, MM.1S,” for “(i.e., NCI-H929”, “and MM.1R)” for “and MM.1S)”, “(C.B-17/IcrHsd-Prkdc-scid) or athymic nude (Foxn1^nu)” for “(C.B-17/IcrHsd-Prkdc-scid)”, “approximately 180” for “approximately 200”, “(NCI-H929 cells), 190 mm^3 (JJN3 cells), 160” for “(NCI-H929 cells) or 180”, “(MM.1S cells), or 175 mm^3 (MM.1R” for “(MM.1S”
Mice were treated with either a single intravenous dose of 15B2GL-SG3249, 109-SG3249, and L15-SG3249 ADCs at 1 mg/kg, or dosed intravenously with J6M0-mc-MMAF ADC weekly at a dose of 1 mg/kg for 3 weeks. Control mice were left untreated.

NCI-H929 xenograft = assay: NCI-H929 subcutaneous xenograft model (Example 5); assay type: in vivo, mouse; conditions: single intravenous dose 0.3 mg/kg, observed for 99 days post tumor implantation
Excerpt: as §1, with “(i.e., NCI-H929, JJN-3, MM.1S,” for “(i.e., NCI-H929”, “and MM.1R)” for “and MM.1S)”, “(C.B-17/IcrHsd-Prkdc-scid) or athymic nude (Foxn1^nu)” for “(C.B-17/IcrHsd-Prkdc-scid)”, “approximately 180” for “approximately 200”, “(NCI-H929 cells), 190 mm^3 (JJN3 cells), 160” for “(NCI-H929 cells) or 180”, “(MM.1S cells), or 175 mm^3 (MM.1R” for “(MM.1S”
Mice were treated with either a single intravenous dose of the ADCs 15B2GL-SG3249, I09-5G3249, L15-SG3249 at 0.3 mg/kg or dosed intravenously with J6M0-mc-MMAF weekly at a dose of 0.3 mg/kg for 2 weeks. Control mice were left untreated.

MM.1S xenograft [2] = assay: MM.1S subcutaneous xenograft model (Example 5); assay type: in vivo, mouse; conditions: single intravenous dose 1 mg/kg, observed for 99 days post tumor implantation
Excerpt: as §1, with “(i.e., NCI-H929, JJN-3, MM.1S,” for “(i.e., NCI-H929”, “and MM.1R)” for “and MM.1S)”, “(C.B-17/IcrHsd-Prkdc-scid) or athymic nude (Foxn1^nu)” for “(C.B-17/IcrHsd-Prkdc-scid)”, “approximately 180” for “approximately 200”, “(NCI-H929 cells), 190 mm^3 (JJN3 cells), 160” for “(NCI-H929 cells) or 180”, “(MM.1S cells), or 175 mm^3 (MM.1R” for “(MM.1S”
Mice were treated with either a single intravenous dose of 15B2GL-SG3249, 109-SG3249, L15-SG3249 ADCs at 1 mg/kg or dosed intravenously with J6M0-mc-MMAF twice weekly at a dose of 1 mg/kg for 4 weeks. Control mice were left untreated.

monomeric human sBCMA = molecular target: T1, monomeric human sBCMA; assay: Kinetics/affinity measurement by SPR (BioRad ProteOn XPR36), antibody captured by anti-Fc, sBCMA flowed over; assay type: binding; conditions: for Koff / Kon: sBCMA 100-6.25 nM; for Kd: unit inferred
Method: The binding of 15B2GL monoclonal antibody and optimized clones I09, L15, P10, N22, and M02 (described in Example 1) was assessed using monomeric human sBCMA (GenScript, Piscataway, N.J.) using a ProteOn™ XPR36 instrument (Bio-Rad, Hercules, Calif.). The binding of J6M0 also was assessed for comparison. Standard amine coupling was used to immobilize 25 μg/ml anti-Fc polyclonal antibody (Jackson ImmunoResearch, West Grove, Pa.) prepared in 10 mM sodium acetate buffer (pH 4.5) to the surface of a ProteOn™ GLC biosensor chip (Bio-Rad, Hercules, Calif.) pre-activated with 20 mM EDAC (1-ethyl-3-(3-dimethylaminopropyl)carbodiimide hydrochloride) and 5 mM Sulfo-NHS (N-hydroxysulfosuccinimide) at a density of ˜200-600 resonance units (RU). 15B2GL, I09, L15, P10, N22, M02, and J6M0 were subsequently injected at a concentration of 1 μg/ml for capture by the immobilized anti-Fc polyclonal antibody. The sensorgram was recorded by flowing two-fold serial dilutions of sBCMA prepared in PBS (pH 7.4) with 0.005% (v/v) Tween®-20, ranging from 100-6.25 nM, over the captured surface for 150 seconds at 75 μL/minute with dissociation time of 600 seconds. ProteOn™ data analysis software was used to analyze the data.

Row | Molecule | Koff (monomeric human sBCMA) | Kon (monomeric human sBCMA) | Kd (monomeric human sBCMA) [nM] | also measured
1 | J6M0-SG3249: ADC comprising the anti-BCMA antibody J6M0 and SG3249 |  |  |  | IC50 (MM.1S cells; sBCMA 0 ng/mL): 0.004816 µg/mL; IC50 (MM.1S cells; sBCMA 75 ng/mL): 0.01283 µg/mL; Fold loss of potency (MM.1S cells; sBCMA 75 ng/mL vs 0): 2.66; IC50 (MM.1S cells; sBCMA 270 ng/mL): 0.03226 µg/mL; Fold loss of potency (MM.1S cells; sBCMA 270 ng/mL vs 0): 6.70; IC50 (MM.1S cells; sBCMA 720 ng/mL): 0.09292 µg/mL; Fold loss of potency (MM.1S cells; sBCMA 720 ng/mL vs 0): 19.29
2 | J6M0-SG3400: BCMA-targeting ADC of J6M0 with SG3400 |  |  |  | tumor regrowth (MM.1S xenograft [1]): no evidence of tumor regrowth
3 | B1 |  |  |  | tumor regrowth (JJN3 xenograft): no evidence of tumor regrowth; tumor regrowth (NCI-H929 xenograft): no evidence of tumor regrowth; tumor regrowth (MM.1S xenograft [2]): no evidence of tumor regrowth
4 | B2 | 4.97E−03 | 4.99E+05 | 9.95 | 
5 | B3 | 8.73E−03 | 5.36E+05 | 16.3 | 
6 | B4 | 5.99E−03 | 6.09E+05 | 9.82 | 
7 | B5 | 3.86E−03 | 8.54E+05 | 4.51 | 
8 | B6 | 3.73E−03 | 7.01E+05 | 5.32 | 
